{
  "source": "paper PMC5382584",
  "about": "“In search of tail-anchored protein machinery in plants: reevaluating the role of arsenite transporters” (Scientific Reports, 2017)",
  "biological_target": "the molecule itself",
  "test": "SEC; preparative size-exclusion chromatography of the purified protein, Superdex-200-16/600GL column; oligomeric state from peak positions",
  "note": "Values joined by “and” are separate entries in the source; they are usually repeats but may differ in a detail not shown here. Identical values can stand only once.",
  "data": [
    {"protein": "Cr-ArsA2 (C. reinhardtii ArsA2), recombinant, purified (natural protein, UniProt A8IXB8 1-362, looked up, ArsA2 of Chlamydomonas reinhardtii, full-length open reading frame, one ATPase domain; pET21 modified with a TEV site between the N-terminal 6His-tag and the polylinker; Seen as dimers and tetramers; also called Dimeric Cr-ArsA2; arsenite transporter ArsA2; source: E. coli BL21 (DE3), purified (Ni-NTA, size-exclusion chromatography)) MAADMPDPTLQNVVDQKELKWIFVGGKGGVGKTTTSSSLAVALAESGTRNRVLIISTDPAHNLSDAFRQKFTKTPTLVNGFTNLFAMEVDPQPDIGEMEQLEWAQDSFLTELAGSIPGIDEAMSFAEVMKQVQTMDYDTIVFDTAPTGHTLRLLNFPTILEKGLSKLVALKGAMGGMMGQVTRMLGGMAGGGEGAADLPDQLLGKVEGMLDVVRKVSAQFKDPLLTTFVAVCIPEFLSLYETERLVQELAKFEIDCRNIVINQIIFPESVGGSRLLDARVRMQQKYLDQFYELYEDFHILQLPLLEEEVRGPEALKAFAVNLLKPYVPAPPTDAAARQAALVSEVAALKKRVAELEAALAKK", "values": [
      {"measurement": "stoichiometry N", "result": "2 and 4"}
    ]}
  ]
}
